Measurements published in US20250346638.

Tested on: TNF ATF 3 (synthetic construct)
Assay: cell_activity
Settings: TNF ELISA about 100 pg/mL with CD3/CD28 Dynabeads vs shock; about 3-fold with stimulation cocktail and BFA (FIG. 15)

Sequence of TNF ATF 3 (synthetic construct) (chain, as listed by the source): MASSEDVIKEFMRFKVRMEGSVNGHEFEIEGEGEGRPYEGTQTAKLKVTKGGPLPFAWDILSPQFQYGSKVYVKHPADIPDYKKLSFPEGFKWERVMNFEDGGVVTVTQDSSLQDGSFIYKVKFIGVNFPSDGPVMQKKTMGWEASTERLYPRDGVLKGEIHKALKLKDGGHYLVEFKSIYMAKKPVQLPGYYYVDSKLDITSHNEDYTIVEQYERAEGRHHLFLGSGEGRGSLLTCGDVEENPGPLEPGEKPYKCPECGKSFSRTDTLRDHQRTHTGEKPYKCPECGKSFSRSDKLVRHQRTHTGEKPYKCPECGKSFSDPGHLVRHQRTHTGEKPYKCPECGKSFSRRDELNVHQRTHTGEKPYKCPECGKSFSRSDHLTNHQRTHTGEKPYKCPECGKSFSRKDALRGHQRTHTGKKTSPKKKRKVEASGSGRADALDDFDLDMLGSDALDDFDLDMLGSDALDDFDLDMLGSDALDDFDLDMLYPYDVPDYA

Substance TNF promoter ATF 3 target has an activity of 5 fold.
